The labels stand for the following.
B1: RAB22A (parent)
chain: FVEDSFDPNINPTIGASFMTKTVQ

We go through 94 variants from the supplement of paper PMC10567573.
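Also: lentivirally expressed fusions sorted by FACS into six bins by GFP to DsRed ratio, PSI derived from sequencing read proportions per bin multiplied by bin number.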

The variants in the data set derive from B1. In words: protein stability index of a GFP-peptide fusion (GPS, HEK-293T) (PSI 1-6); higher = more stable. Particulars: c terminus: a fixed tail appended.
As to FVVDSFDPNINPTIGASFMTKTVQ [E3V], the protein stability index was 1.75.
Consider FVIDSFDPNINPTIGASFMTKTVQ [E3I], for which the protein stability index is 1.88.
The result for FVWDSFDPNINPTIGASFMTKTVQ [E3W] reads 1.72; that for FVKDSFDPNINPTIGASFMTKTVQ [E3K], 1.88.
As for FVMDSFDPNINPTIGASFMTKTVQ [E3M], the figure is 1.84; as for FVYDSFDPNINPTIGASFMTKTVQ [E3Y], 1.75.
Turning to FVGDSFDPNINPTIGASFMTKTVQ [E3G], the protein stability index turned out to be 1.49.
The result for FVADSFDPNINPTIGASFMTKTVQ [E3A] reads 1.93; that for FVSDSFDPNINPTIGASFMTKTVQ [E3S], 2.8; that for FVLDSFDPNINPTIGASFMTKTVQ [E3L], 1.78.
The result for FVDDSFDPNINPTIGASFMTKTVQ [E3D] reads 2.49; that for FVCDSFDPNINPTIGASFMTKTVQ [E3C], 1.59.
Regarding FVRDSFDPNINPTIGASFMTKTVQ [E3R], the protein stability index worked out at 2.54.
The result for FVTDSFDPNINPTIGASFMTKTVQ [E3T] reads 1.57; that for FVPDSFDPNINPTIGASFMTKTVQ [E3P], 2.95; that for FVFDSFDPNINPTIGASFMTKTVQ [E3F], 2.57.
As for FVHDSFDPNINPTIGASFMTKTVQ [E3H], the figure is 2.26.
As for FVQDSFDPNINPTIGASFMTKTVQ [E3Q], the figure is 1.75.
For the variant FVNDSFDPNINPTIGASFMTKTVQ [E3N], the protein stability index stood at 1.96.
As for FVEDSFDPNCNPTIGASFMTKTVQ [I10C], the figure is 2.14; as for FVEDSFDPNFNPTIGASFMTKTVQ [I10F], 2.2.
As for FVEDSFDPNPNPTIGASFMTKTVQ [I10P], the figure is 2.57.
For the variant FVEDSFDPNMNPTIGASFMTKTVQ [I10M], the protein stability index was found to be 1.99.
As for FVEDSFDPNKNPTIGASFMTKTVQ [I10K], the figure is 2.5; as for FVEDSFDPNRNPTIGASFMTKTVQ [I10R], 2.1.
As for FVEDSFDPNDNPTIGASFMTKTVQ [I10D], the figure is 2.93; as for FVEDSFDPNQNPTIGASFMTKTVQ [I10Q], 2.81.
For the variant FVEDSFDPNVNPTIGASFMTKTVQ [I10V], the protein stability index was determined as 2.21.
The result for FVEDSFDPNSNPTIGASFMTKTVQ [I10S] reads 2.56; that for FVEDSFDPNENPTIGASFMTKTVQ [I10E], 3.02.
The result for FVEDSFDPNLNPTIGASFMTKTVQ [I10L] reads 2.14.
Take FVEDSFDPNTNPTIGASFMTKTVQ [I10T]: the protein stability index was determined as 2.83.
Take FVEDSFDPNGNPTIGASFMTKTVQ [I10G]: the protein stability index was 2.3.
FVEDSFDPNHNPTIGASFMTKTVQ [I10H]: the protein stability index came to 2.48.
Take FVEDSFDPNANPTIGASFMTKTVQ [I10A]: the protein stability index stood at 2.48.
As for FVEDSFDPNYNPTIGASFMTKTVQ [I10Y], the figure is 2.25; as for FVEDSFDPNWNPTIGASFMTKTVQ [I10W], 1.93.
In the case of FVEDSFDPNNNPTIGASFMTKTVQ [I10N], the protein stability index is 2.73.
FVEDSFDWNINPTIGASFMTKTVQ [P8W]: the protein stability index was 2.65.
As for FVEDSFDININPTIGASFMTKTVQ [P8I], the figure is 1.67; as for FVEDSFDGNINPTIGASFMTKTVQ [P8G], 2.52.
The result for FVEDSFDYNINPTIGASFMTKTVQ [P8Y] reads 1.85; that for FVEDSFDSNINPTIGASFMTKTVQ [P8S], 2.17.
For FVEDSFDANINPTIGASFMTKTVQ [P8A], the protein stability index was determined as 2.33.
The result for FVEDSFDENINPTIGASFMTKTVQ [P8E] reads 2.7; that for FVEDSFDNNINPTIGASFMTKTVQ [P8N], 2.35.
On to FVEDSFDCNINPTIGASFMTKTVQ [P8C], for which the protein stability index amounted to 2.02.
FVEDSFDTNINPTIGASFMTKTVQ [P8T]: the protein stability index is 2.39.
In the case of FVEDSFDHNINPTIGASFMTKTVQ [P8H], the protein stability index was 2.1.
As for FVEDSFDFNINPTIGASFMTKTVQ [P8F], the figure is 2.94; as for FVEDSFDQNINPTIGASFMTKTVQ [P8Q], 2.26.
The result for FVEDSFDLNINPTIGASFMTKTVQ [P8L] reads 2.1; that for FVEDSFDKNINPTIGASFMTKTVQ [P8K], 2.13; that for FVEDSFDVNINPTIGASFMTKTVQ [P8V], 2.27.
The result for FVEDSFDRNINPTIGASFMTKTVQ [P8R] reads 2.63; that for FVEDSFDDNINPTIGASFMTKTVQ [P8D], 2.76.
With FVEDSFDMNINPTIGASFMTKTVQ [P8M], the protein stability index was 2.06.
As for FVEDYFDPNINPTIGASFMTKTVQ [S5Y], the figure is 1.98; as for FVEDRFDPNINPTIGASFMTKTVQ [S5R], 1.93; as for FVEDGFDPNINPTIGASFMTKTVQ [S5G], 2.08.
Take FVEDPFDPNINPTIGASFMTKTVQ [S5P]: the protein stability index was found to be 1.96.
As for FVEDWFDPNINPTIGASFMTKTVQ [S5W], the figure is 1.52; as for FVEDLFDPNINPTIGASFMTKTVQ [S5L], 1.97.
As for FVEDMFDPNINPTIGASFMTKTVQ [S5M], the figure is 1.99.
Regarding FVEDIFDPNINPTIGASFMTKTVQ [S5I], the protein stability index is 2.18.
The result for FVEDCFDPNINPTIGASFMTKTVQ [S5C] reads 2.03; that for FVEDNFDPNINPTIGASFMTKTVQ [S5N], 2.64; that for FVEDTFDPNINPTIGASFMTKTVQ [S5T], 2.34.
The result for FVEDEFDPNINPTIGASFMTKTVQ [S5E] reads 3.63; that for FVEDHFDPNINPTIGASFMTKTVQ [S5H], 1.74.
FVEDVFDPNINPTIGASFMTKTVQ [S5V]: the protein stability index turned out to be 1.89.
The result for FVEDAFDPNINPTIGASFMTKTVQ [S5A] reads 2.16; that for FVEDFFDPNINPTIGASFMTKTVQ [S5F], 2.92; that for FVEDQFDPNINPTIGASFMTKTVQ [S5Q], 2.65.
As for FVEDKFDPNINPTIGASFMTKTVQ [S5K], the figure is 2.1.
As for FVEDDFDPNINPTIGASFMTKTVQ [S5D], the figure is 3.27.
In the case of FVEDSFDPNINFTIGASFMTKTVQ [P12F], the protein stability index came out at 2.
On to FVEDSFDPNINATIGASFMTKTVQ [P12A], for which the protein stability index was 2.13.
The result for FVEDSFDPNINDTIGASFMTKTVQ [P12D] reads 2.49; that for FVEDSFDPNINHTIGASFMTKTVQ [P12H], 2.46; that for FVEDSFDPNINGTIGASFMTKTVQ [P12G], 2.29.
The result for FVEDSFDPNINCTIGASFMTKTVQ [P12C] reads 2.06; that for FVEDSFDPNINETIGASFMTKTVQ [P12E], 2.57; that for FVEDSFGPNINPTIGASFMTKTVQ [D7G], 1.79.
As for FVEDSFAPNINPTIGASFMTKTVQ [D7A], the figure is 1.96; as for FVEDSFTPNINPTIGASFMTKTVQ [D7T], 2.15; as for FVEDSFLPNINPTIGASFMTKTVQ [D7L], 2.15.
On to FVEDSFSPNINPTIGASFMTKTVQ [D7S], for which the protein stability index was 1.92.
Turning to FVEDSFPPNINPTIGASFMTKTVQ [D7P], the protein stability index stood at 1.96.
Turning to FVEDSFHPNINPTIGASFMTKTVQ [D7H], the protein stability index came to 2.
As for FVEDSFVPNINPTIGASFMTKTVQ [D7V], the figure is 1.94; as for FVEDSFMPNINPTIGASFMTKTVQ [D7M], 2.33; as for FVEDSFRPNINPTIGASFMTKTVQ [D7R], 1.97.
As for FVEDSFIPNINPTIGASFMTKTVQ [D7I], the figure is 2.
